Reference: doi:10.1101/2025.08.03.668247, “The structure of Egalitarian in complex with the K10 mRNA localization signal reveals a modular binding surface required for function”
Residue numbers refer to the chain shown, from its start.

Key:
Assay in all cases: fluorescence anisotropy; FA: 20 mM HEPES-NaOH pH 7.5, 100 mM NaCl, 10% glycerol, 20 C, 10 nM FAM-RNA; competition: 150 nM Egl512-819 + 10 nM FAM-K10 TLS, same buffer
[1] = biological target: T1, R785E (Drosophila melanogaster, UniProt Q9W1K4 512-819, R785E); conditions: protein: recombinant; tags: N-terminal GST; label: 5'-6-FAM; hairpin with two bulges
T1 sequence: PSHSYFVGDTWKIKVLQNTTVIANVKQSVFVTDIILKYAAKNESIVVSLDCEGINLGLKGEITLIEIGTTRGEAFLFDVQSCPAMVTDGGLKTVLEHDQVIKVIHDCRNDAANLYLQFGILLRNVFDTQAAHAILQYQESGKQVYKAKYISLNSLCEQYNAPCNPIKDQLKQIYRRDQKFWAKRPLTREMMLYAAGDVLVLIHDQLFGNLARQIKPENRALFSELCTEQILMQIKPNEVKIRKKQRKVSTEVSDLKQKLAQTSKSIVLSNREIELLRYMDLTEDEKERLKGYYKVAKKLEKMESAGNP

[2] = biological target: T2, GST-Egl512-819 (Drosophila melanogaster, UniProt Q9W1K4 512-819); conditions: protein: recombinant; tags: N-terminal GST (TEV site); label: 5'-6-FAM; hairpin with two bulges
T2 sequence: T1 sequence with E274R

[3] = biological target: T3, L-Triple (Drosophila melanogaster, UniProt Q9W1K4 512-819, R753E;K754E;K755E); conditions: protein: recombinant; tags: N-terminal GST; label: 5'-6-FAM; hairpin with two bulges
T3 sequence: T1 sequence with R242E, K243E, K244E, E274R

[4] = biological target: T4, Egl512-931 (Drosophila melanogaster, UniProt Q9W1K4 512-931); conditions: protein: recombinant; tags: N-terminal GST; label: 5'-6-FAM; hairpin with two bulges
T4 sequence: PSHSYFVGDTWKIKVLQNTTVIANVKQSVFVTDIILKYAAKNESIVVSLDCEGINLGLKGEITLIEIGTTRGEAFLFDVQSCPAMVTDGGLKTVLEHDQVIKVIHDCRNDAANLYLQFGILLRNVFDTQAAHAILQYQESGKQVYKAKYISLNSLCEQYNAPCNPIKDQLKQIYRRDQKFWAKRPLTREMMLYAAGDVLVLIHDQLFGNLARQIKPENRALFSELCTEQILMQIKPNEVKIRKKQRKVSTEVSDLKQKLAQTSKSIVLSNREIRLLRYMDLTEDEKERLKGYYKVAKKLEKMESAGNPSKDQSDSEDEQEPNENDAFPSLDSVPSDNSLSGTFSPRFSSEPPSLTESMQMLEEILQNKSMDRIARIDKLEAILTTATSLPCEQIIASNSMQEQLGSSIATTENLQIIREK

[5] = biological target: T5, D617A/R619A/N620A (Drosophila melanogaster, UniProt Q9W1K4 512-819, D617A;R619A;N620A); conditions: protein: recombinant; tags: N-terminal GST; label: 5'-6-FAM; hairpin with two bulges
T5 sequence: T1 sequence with D106A, R108A, N109A, E274R

[6] = biological target: T6, K659E/K754E (Drosophila melanogaster, UniProt Q9W1K4 512-819, K659E;K754E); conditions: protein: recombinant; tags: N-terminal GST; label: 5'-6-FAM; hairpin with two bulges
T6 sequence: T1 sequence with K148E, K243E, E274R

Work on CUUGAUUGUAUUUUUAAAUUAAUUCUUAAAAACUACAAAUUAAG (structured_RNA) [K10 TLS (FAM)] yielded a Kd [1] of 210 ± 5 nM, a Kd [2] of 130 ± 6 nM and a Kd [3] of 1460 ± 302 nM. The Kd [4] was 164 ± 7 nM, the Kd [5] was 273 ± 12 nM and the Kd [6] was 433 ± 42 nM.
